The labels stand for the following.
B1: full-length human TIA-1 WT (natural protein, UniProt P31483 1-386, looked up)
chain: MEDEMPKTLYVGNLSRDVTEALILQLFSQIGPCKNCKMIMDTAGNDPYCFVEFHEHRHAAAALAAMNGRKIMGKEVKVNWATTPSSQKKDTSSSTVVSTQRSQDHFHVFVGDLSPEITTEDIKAAFAPFGRISDARVVKDMATGKSKGYGFVSFFNKWDAENAIQQMGGQWLGGRQIRTNWATRKPPAPKSTYESNTKQLSYDEVVNQSSPSNCTVYCGGVTSGLTEQLMRQTFSPFGQIMEIRVFPDKGYSFVRFNSHESAAHAIVSVNGTTIEGHVVKCYWGKETLDMINPVQQQNQIGYPQPYGQWGQWYGNAQQIGQYMPNGWQVPAYGMYGQAWNQQGFNQTQSSAPWMGPNYGVQPPQGQNGSMLPNQPSGYRVAGYETQ
notes: T-cell intracellular antigen-1 (TIA-1), human, full length, 386 residues (three RRMs followed by the PLD); also called full-length TIA-1; FL; source: recombinant
B2: full-length human TIA-1 G355R (natural protein, UniProt P31483 1-386, looked up)
chain: B1 chain with G355R
notes: TIA-1, human, full length, 386 residues, with the missense mutation G355R (found in genetic research on ALS/FTD); source: recombinant
B3: full-length human TIA-1 E384K (natural protein, UniProt P31483 1-386, looked up)
chain: B1 chain with E384K
notes: TIA-1, human, full length, 386 residues, with the disease-associated missense mutation E384K; source: recombinant
B4: full-length human TIA-1 A381T (natural protein, UniProt P31483 1-386, looked up)
chain: B1 chain with A381T
notes: TIA-1, human, full length, 386 residues, with the disease-associated missense mutation A381T; source: recombinant
B5: full-length human TIA-1 P362L (natural protein, UniProt P31483 1-386, looked up)
chain: B1 chain with P362L
notes: TIA-1, human, full length, 386 residues, with the disease-associated missense mutation P362L; source: recombinant
B6: synthesized peptide of the 25-residue TIA-1 fibril core (TFC peptide), residues 336-360 (peptide, UniProt P31483 336-360, looked up)
peptide: GQAWNQQGFNQTQSSAPWMGPNYGV
notes: TIA-1, human, fibril core region, residues 336-360 (25 residues); also called TFC peptide fibrils; TFC fibrils; source: synthetic peptide
B7: human TIA-1 sPLD (residues 320-386) W339A (domain or fragment, UniProt P31483 320-386, looked up)
chain: GQYMPNGWQVPAYGMYGQAANQQGFNQTQSSAPWMGPNYGVQPPQGQNGSMLPNQPSGYRVAGYETQ
notes: TIA-1, human, short PLD, residues 320-386, with W339A
B8: human TIA-1 sPLD (residues 320-386) P362L (domain or fragment, UniProt P31483 320-386, looked up)
chain: B7 chain with A20W, P43L
notes: TIA-1, human, short PLD, residues 320-386, with the disease-associated missense mutation P362L
B9: human TIA-1 sPLD (residues 320-386) Q346L (domain or fragment, UniProt P31483 320-386, looked up)
chain: B7 chain with A20W, Q27L
notes: TIA-1, human, short PLD, residues 320-386, with Q346L
B10: human TIA-1 sPLD (residues 320-386) A381T (domain or fragment, UniProt P31483 320-386, looked up)
chain: B7 chain with A20W, A62T
notes: TIA-1, human, short PLD, residues 320-386, with the disease-associated missense mutation A381T
B11: human TIA-1 sPLD (residues 320-386) E384K (domain or fragment, UniProt P31483 320-386, looked up)
chain: B7 chain with A20W, E65K
notes: TIA-1, human, short PLD, residues 320-386, with the disease-associated missense mutation E384K
B12: human TIA-1 sPLD (residues 320-386) W353A (domain or fragment, UniProt P31483 320-386, looked up)
chain: B7 chain with A20W, W34A
notes: TIA-1, human, short PLD, residues 320-386, with W353A
B13: human TIA-1 sPLD (residues 320-386) G343P (domain or fragment, UniProt P31483 320-386, looked up)
chain: B7 chain with A20W, G24P
notes: TIA-1, human, short PLD, residues 320-386, with G343P
B14: human TIA-1 sPLD (residues 320-386) Q348L (domain or fragment, UniProt P31483 320-386, looked up)
chain: B7 chain with A20W, Q29L
notes: TIA-1, human, short PLD, residues 320-386, with Q348L
B15: human TIA-1 sPLD (residues 320-386) M354A (domain or fragment, UniProt P31483 320-386, looked up)
chain: B7 chain with A20W, M35A
notes: TIA-1, human, short PLD, residues 320-386, with M354A
B16: human wild-type TIA-1 short prion-like domain (sPLD), residues 320-386 (domain or fragment, UniProt P31483 320-386, looked up)
chain: B7 chain with A20W
notes: T-cell intracellular antigen-1 (TIA-1), human, 386 residues; short PLD, residues 320-386; Only residues 336-360 are resolved in the fibril structure; also called WT TIA-1 sPLD; TIA-1 sPLD
B17: human TIA-1 sPLD (residues 320-386) with the G355R missense mutation (domain or fragment, UniProt P31483 320-386, looked up)
chain: B7 chain with A20W, G36R
notes: TIA-1, human, short PLD, residues 320-386, with G355R (found in genetic research on ALS/FTD); Only residues 334-349 are resolved in the fibril structure; also called G355R TIA-1 sPLD; TIA-1 G355R fibrils

Where a chain is given by its changes, count along the chain named. Numbers in names are those of the source.

The first data set concerns the molecule itself. Briefly: thioflavin T fluorescence + negative-stain TEM; fibril formation of recombinant full-length TIA-1 from phase-separated condensates, with single-stranded DNA TC5, physiological buffer, 30 °C, up to 3 days.
For the protein B1, the binding result was “binds”.
The same measure, in the same setting: with B2 the entry was “binds”.
On the same count and under the same terms, next, B3: “binds”; B4: “binds”.
For the protein B5, the binding result was “binds”.

A further data set concerns the molecule itself. Briefly: thioflavin T fluorescence + negative-stain TEM; fibril formation of the synthetic TFC peptide alone, 100 to 12.5 μM.
Take B6: the binding result is “binds”.

The next data set deals with the molecule itself. Briefly: thioflavin T fluorescence + negative-stain TEM; fibril formation of TIA-1 sPLD from phase-separated condensates, without TC5, physiological buffer, 30 °C, 3 days.
With B7, the binding result is listed as “binds”.
Same read-out and setting: with B8 the entry was “binds”; with B9, “binds”.
Regarding B10, the binding result is reported as “binds”.
On the same count and under the same terms, with B11 the entry was “binds”; with B12, “binds”; with B13, “binds”.
Consider B14, for which the binding result was “binds”.
As for B15, the binding result is recorded as “binds”.

Another data set concerns the molecule itself. Briefly: cryo-EM structure; twisted amyloid fibrils of TIA-1 sPLD; fibrils grown by adding sonicated seeds to a monomer solution in 0.1% trifluoroacetic acid; helical reconstruction, two protofilaments.
For the protein B16, the binding result is recorded as “binds”.
On the same count and under the same terms, with B17 the entry was “binds”.
